From article PMC2764445 come the findings set out here.

Read-outs that look alike come from different tables or passages of the source.

The target of data set [1] is T1, Hfq (His-tagged; natural Hfq used in some experiments) (UniProt P0A6X3 1-102). As to the kind of experiment: EMSA.
Data set [2] addresses T1, Hfq (His-tagged; natural Hfq used in …). Put plainly: EMSA. This is another data set of the same source.
For data set [3] the target is unchanged. As to the kind of experiment: fluorescence anisotropy.

T1 sequence (P0A6X3 whole entry): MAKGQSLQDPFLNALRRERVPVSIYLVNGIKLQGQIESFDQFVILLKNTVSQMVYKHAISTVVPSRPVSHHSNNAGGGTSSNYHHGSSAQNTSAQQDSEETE

With CCCCTCGAATTTTTTAAGTGCAGGGG (ssDNA) [dMB-R16], in data set [1], the binding result is “no binding”.

With GCACUUAAAAAAUUCG (ssRNA) [R16], the binding result in data set [2] was “binds”.

In the case of CGAAUUUUUUAAGUGC (ssRNA) [D16-FAM], the Kd in data set [3] was 23 ± 4 nM.

Take CCAGGGCACTTAAAAAATTCGCCTGG (ssDNA) [dMB-D16]: in data set [1], the binding result is on record as “no binding”.
